Data on 36 sequences can be found in the supplement of paper PMC10567573.

This series in a line: protein stability index of a GFP-peptide fusion (GPS, HEK-293T) (PSI 1-6); higher = more stable. The conditions noted are these: c terminus: a fixed tail appended.

± gives the standard deviation.
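Further: 24-mer peptide tiles fused after GFP, lentivirally expressed, FACS-sorted into six equal bins by GFP/DsRed ratio, decoded by Illumina sequencing, PSI is the read-weighted mean bin number.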

Take VEVDTAPTVDLNQVLNETRSQYEA [KRT34]: the protein stability index is, setting by setting: (treatment: DMSO) 5.2 ± 0.17; (treatment: MLN4924 1 uM, 8 h) 5 ± 0.32.

For LAAGSAVFDAMFNGGMATTSAEIE [BTBD1], the protein stability index reads like this: (treatment: DMSO) 3.72 ± 0.35; (treatment: MLN4924 1 uM, 8 h) 3.75 ± 0.29.

As for SINQRLNKRERSKLKNLRRKQRRR [RNF180], the protein stability index by setting is: (treatment: DMSO) 3.9 ± 0.14; (treatment: MLN4924 1 uM, 8 h) 3.93 ± 0.24.

With FHYIIEQGVCYLVLCEAAFPKKLA [SEC22B], the protein stability index is, setting by setting: (treatment: DMSO) 3.01 ± 0.71; (treatment: MLN4924 1 uM, 8 h) 2.68 ± 0.63.

DIGKGAFSVVRRCVKLCTGHEYAA [CAMK2B]: the protein stability index was 1.93 ± 0.2 (treatment: DMSO) and 2.06 ± 0.37 (treatment: MLN4924 1 uM, 8 h).

For the sequence GSTNLTGLFFPPQLNGTANDTAGP [NFE2L1], the protein stability index runs as follows: (treatment: DMSO) 3.93 ± 0.14; (treatment: MLN4924 1 uM, 8 h) 4 ± 0.25.

With LALLPAAWEDSHGSQDGHFVLSCS [SCNN1D], the protein stability index was determined as 2.92 ± 0.083 (treatment: DMSO) and 2.9 ± 0.34 (treatment: MLN4924 1 uM, 8 h).

With LSPEVLNKQGHGCESDIWALGCVM [PLK2], the protein stability index came out at 2.09 ± 0.15 (treatment: DMSO) and 2.14 ± 0.29 (treatment: MLN4924 1 uM, 8 h).

QRLPRSAPPGSLVTKVTAVDADAG [PCDHGC5]: the protein stability index is, setting by setting: (treatment: DMSO) 4.76 ± 0.21; (treatment: MLN4924 1 uM, 8 h) 4.82 ± 0.3.

CLLVLRLFLGIHVFLVSCALPDSV [AUP1]: the protein stability index stood at 3.22 ± 0.2 (treatment: DMSO) and 3.09 ± 0.05 (treatment: MLN4924 1 uM, 8 h).

For HYICPRLGGIGFSSCIVCLFVGLY [SLC6A17], the protein stability index turned out to be 2.39 ± 0.54 (treatment: DMSO) and 2.3 ± 0.21 (treatment: MLN4924 1 uM, 8 h).

Consider TRIEKRIVITGDADIDHDQALAQA [EPB41L3], for which the protein stability index by setting is: (treatment: DMSO) 4.48 ± 0.27; (treatment: MLN4924 1 uM, 8 h) 4.72 ± 0.25.

Turning to EEDNDDAKILPSPVQGSSEDNLSL [DRICH1], the protein stability index is, setting by setting: (treatment: DMSO) 5.57 ± 0.25; (treatment: MLN4924 1 uM, 8 h) 5.55 ± 0.17.

On to EFMKDRLYFATLRNRPKSTVNTHY [CDC14A], for which the protein stability index (treatment: DMSO) came to 2.11 ± 0.23 and the protein stability index (treatment: MLN4924 1 uM, 8 h) is 2.17 ± 0.59.

Take YFFKRPYPFVLFYSKFHGLEMCVD [KMT2E]: the protein stability index (treatment: DMSO) worked out at 2.75 ± 1 and the protein stability index (treatment: MLN4924 1 uM, 8 h) was found to be 3.19 ± 0.55.

For MNLDIVDLLKKAKFHHSDCLSTWL [RHOBTB3], the protein stability index is, setting by setting: (treatment: DMSO) 2.53 ± 0.4; (treatment: MLN4924 1 uM, 8 h) 2.44 ± 0.63.

As for SFSNYRPFEPQALGLSPSWRLTGF [SEPHS2], the protein stability index reads like this: (treatment: DMSO) 1.95 ± 0.2; (treatment: MLN4924 1 uM, 8 h) 2.01 ± 0.42.

As to QDFLLFSPEVESLPVASSSTLLPL [NFE2L1], the protein stability index by setting is: (treatment: DMSO) 3.34 ± 0.79; (treatment: MLN4924 1 uM, 8 h) 3.37 ± 0.57.

For the sequence EYQLYEDIGKGAFSVVRRCVKLCT [CAMK2B], the protein stability index (treatment: DMSO) stood at 2.45 ± 0.26 and the protein stability index (treatment: MLN4924 1 uM, 8 h) was found to be 2.25 ± 0.36.

Regarding IEMFKSITHSTVGSKGEKDLGASS [EHMT1], the protein stability index amounted to 4.23 ± 0.15 (treatment: DMSO) and 3.85 ± 0.36 (treatment: MLN4924 1 uM, 8 h).

For the sequence PGPMGPPGPPGPTGVPGSPGHIGP [EMID1], the protein stability index was 4.82 ± 0.4 (treatment: DMSO) and 5.18 ± 0.34 (treatment: MLN4924 1 uM, 8 h).

Regarding LSSTLLSFSTAIGRTCITDLQLTV [MFSD9], the protein stability index by setting is: (treatment: DMSO) 3.11 ± 0.17; (treatment: MLN4924 1 uM, 8 h) 3.18 ± 0.39.

Take KSNSYPHQLYTSSSHHSHSYIGLP [KMT2E]: the protein stability index is, setting by setting: (treatment: DMSO) 3.03 ± 0.17; (treatment: MLN4924 1 uM, 8 h) 3.24 ± 0.26.

With LEFAYYFRPGHLLANACLPVRTTN [ZSWIM9], the protein stability index worked out at 2.47 ± 0.67 (treatment: DMSO) and 2.25 ± 0.28 (treatment: MLN4924 1 uM, 8 h).

For the sequence LITKNHSQEETSILRCWKCRKCIA [RNF180], the protein stability index amounted to 2.48 ± 0.44 (treatment: DMSO) and 2.98 ± 0.58 (treatment: MLN4924 1 uM, 8 h).

Turning to ARCTAGTLHNLSHHREGLLAIFKS [CTNNB1], the protein stability index runs as follows: (treatment: DMSO) 2.48 ± 0.19; (treatment: MLN4924 1 uM, 8 h) 2.45 ± 0.19.

Consider IAKYSDGASKAAGVFGFFATIVFA [CMTM3], for which the protein stability index is, setting by setting: (treatment: DMSO) 2.86 ± 0.57; (treatment: MLN4924 1 uM, 8 h) 2.74 ± 0.41.

Consider RKCPVHGKTMELFCQTDQTCICYL [TRIM29], for which the protein stability index came out at 2.94 ± 0.61 (treatment: DMSO) and 3.72 ± 0.59 (treatment: MLN4924 1 uM, 8 h).

Take NDFVQVDPGQVGLINSNVSMVDLT [FAN1]: the protein stability index reads like this: (treatment: DMSO) 3.9 ± 0.39; (treatment: MLN4924 1 uM, 8 h) 4.24 ± 0.15.

Regarding ISSTTCGRQLEKVPEKRDSGMTEV [SPATS1], the protein stability index came to 4.27 ± 0.24 (treatment: DMSO) and 4.38 ± 0.35 (treatment: MLN4924 1 uM, 8 h).

For the sequence PMQKLQDLVNRTPWKKCCFSGDGE [RBBP5], the protein stability index reads like this: (treatment: DMSO) 2.84 ± 0.15; (treatment: MLN4924 1 uM, 8 h) 2.94 ± 0.071.

Regarding PKEATVMCEQCDVFYCDPCRLRCH [TRIM9], the protein stability index by setting is: (treatment: DMSO) 3.65 ± 0.28; (treatment: MLN4924 1 uM, 8 h) 3.82 ± 0.42.

Consider KSDKALMMLFNDGTFQVNFYHDHT [PLK2], for which the protein stability index (treatment: DMSO) stood at 1.86 ± 0.32 and the protein stability index (treatment: MLN4924 1 uM, 8 h) was 2.25 ± 0.14.

Consider WTHDGIDINNNFPDLNTLLWEAED [CPXM2], for which the protein stability index is, setting by setting: (treatment: DMSO) 3.44 ± 0.098; (treatment: MLN4924 1 uM, 8 h) 3.8 ± 0.45.

WPARVLDISLGQKEDGEPSWREAK [PWWP2B]: the protein stability index by setting is: (treatment: DMSO) 4.18 ± 0.12; (treatment: MLN4924 1 uM, 8 h) 4.27 ± 0.11.

Consider KHMFERSFTQGEGARPLSTRVPRA [MATN2], for which the protein stability index reads like this: (treatment: DMSO) 4.07 ± 0.18; (treatment: MLN4924 1 uM, 8 h) 3.85 ± 0.35.
